Experiments:
[1] = biological target: T1, purified recombinant human EGFR (human, UniProt P00533 25-645); assay: SPR (Biacore 8K), 37 C
T1 construct: the whole entry is named; also called recombinant human epidermal growth factor receptor

[2] = biological target: T2, human EGFR L747-E749del, A750P on HCC4006 cells (human, UniProt P00533 25-1210); assay: flow cytometry, HCC4006 cells
T2 construct: whole, on cells; The deletion L747-E749 cannot be written as a substitution; it stands under detail; also called EGFRmut L747-E749del, A750P

human NKG2D on cells [3] = biological target: T3, human NKG2D on cells (human, UniProt P26718 1-216); assay: cell-based or functional assay
T3 sequence (looked up): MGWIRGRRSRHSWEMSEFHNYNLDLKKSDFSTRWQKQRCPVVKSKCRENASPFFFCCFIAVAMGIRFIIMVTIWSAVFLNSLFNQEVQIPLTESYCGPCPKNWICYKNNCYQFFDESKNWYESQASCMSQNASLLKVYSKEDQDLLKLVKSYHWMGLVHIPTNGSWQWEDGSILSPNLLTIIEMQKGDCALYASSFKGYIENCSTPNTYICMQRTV

[4] = biological target: T4, human EGFR (wild type) on cells (human, UniProt P00533 25-1210); assay: flow cytometry, KYSE-30 cells
T4 construct: whole, on cells; also called EGFRwt

cynomolgus monkey FcRn = cynomolgus monkey FcRn (cynomolgus monkey, UniProt Q8SPV9 24-297; Q8SPW0 21-119, limits assumed); assay: SPR, pH 6.0; pH 6.0
[5] = biological target: T5, purified recombinant human FcRn (human, UniProt P55899 24-297; P61769 21-119); assay: SPR (Biacore 8K), 25 C, pH 6.0; pH 6.0
T5 construct: also called neonatal Fc receptor

[6] = biological target: T4, human EGFR (wild type) on cells; assay: cell-based or functional assay
[7] = biological target: T6, cynomolgus monkey NKG2D on NK cells (cynomolgus monkey, UniProt P61252 1-216); assay: cell-based or functional assay
T6 sequence (looked up): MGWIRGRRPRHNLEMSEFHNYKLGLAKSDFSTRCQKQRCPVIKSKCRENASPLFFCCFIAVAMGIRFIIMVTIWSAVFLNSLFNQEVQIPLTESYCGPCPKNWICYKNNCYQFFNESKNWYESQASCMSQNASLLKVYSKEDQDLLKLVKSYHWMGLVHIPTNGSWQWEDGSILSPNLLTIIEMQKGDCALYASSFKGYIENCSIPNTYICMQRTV

[8] = biological target: human EGFR T790M, L858R on NCI-H1975 cells (human, UniProt P00533 25-1210); assay: cell-based or functional assay
[9] = biological target: T7, cynomolgus monkey EGFR on primary cynomolgus monkey esophageal epithelial cells (cynomolgus monkey, UniProt A0A2K5WK39 25-1210); assay: flow cytometry on primary cynomolgus monkey esophageal epithelial cells, anti-human Fc-PE secondary
T7 construct: whole, on cells; also called cynomolgus monkey EGFR-expressing cells

[10] = biological target: T4, human EGFR (wild type) on cells; assay: flow cytometry, HT29 cells
human NKG2D on cells [11] = biological target: T3, human NKG2D on cells; assay: cell-based or functional assay; remark: listed apart in the source
[12] = biological target: T4, human EGFR (wild type) on cells; assay: cell-based or functional assay; remark: listed apart in the source
[13] = biological target: T4, human EGFR (wild type) on cells; assay: flow cytometry, BT474 cells
[14] = biological target: T4, human EGFR (wild type) on cells; assay: cell-based or functional assay; remark: listed apart in the source
[15] = biological target: T8, purified recombinant human NKG2D (human, UniProt P26718 78-216, limits assumed); assay: SPR
T8 sequence (looked up): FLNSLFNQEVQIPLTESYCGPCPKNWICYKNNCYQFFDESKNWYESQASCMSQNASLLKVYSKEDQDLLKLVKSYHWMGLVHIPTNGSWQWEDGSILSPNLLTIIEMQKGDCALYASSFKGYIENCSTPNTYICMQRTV

[16] = biological target: T9, purified recombinant human FcγRIIa H131 (human, UniProt P12318 36-218, limits assumed); assay: SPR (Biacore 8K), 25 C
T9 sequence (looked up): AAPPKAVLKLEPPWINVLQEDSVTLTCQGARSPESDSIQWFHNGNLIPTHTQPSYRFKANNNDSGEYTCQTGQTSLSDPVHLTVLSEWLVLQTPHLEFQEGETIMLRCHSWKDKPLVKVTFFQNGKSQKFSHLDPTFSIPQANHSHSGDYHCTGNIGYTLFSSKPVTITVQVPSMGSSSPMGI

[17] = biological target: T10, purified recombinant human FcγRIIIa V158 (human, UniProt P08637 17-208); assay: SPR (Biacore 8K), 25 C
T10 construct: also called human CD16 V158; CD16a

[18] = biological target: purified recombinant human FcγRI (human, UniProt P12314 16-288, limits assumed); assay: SPR (Biacore 8K), 25 C
[19] = biological target: T4, human EGFR (wild type) on cells; assay: flow cytometry, MDA-MB-453 cells
[20] = biological target: T4, human EGFR (wild type) on cells; assay: flow cytometry, NCI-H1703 cells

- fold weaker affinity than panitumumab [1]: 4.7 fold
- EC50 [2]: 1.8 nM
- Max FOB [2]: 160 fold over background
- EC50, CD8+ T-cell lysis of 786-O cells (human NKG2D on cells [3]): 0.43 nM
- EC50, CD8+ T-cell lysis of NCI-H1975 cells (human NKG2D on cells [3]): 0.17 nM
- EC50 [4]: 11 nM
- Max FOB [4]: 1800 fold over background
- Kd (cynomolgus monkey FcRn): 900 nM
- Kd [5]: 1000 nM
- EC50, NK cell degranulation and cytokine production, human PBMCs with 786-O [6]: 0.089 nM
- EC50, NK cell degranulation and cytokine production, cynomolgus monkey PBMCs with 786-O [7]: 0.023 nM
- EC50, NK cell degranulation and cytokine production, cynomolgus monkey PBMCs with NCI-H1975 [7]: 0.037 nM
- EC50, NK cell degranulation and cytokine production, human PBMCs with NCI-H1975 [8]: 0.067 nM
- EC50 [9]: 1.09 nM
- EC50 [10]: 1.3 nM
- Max FOB [10]: 340 fold over background
- EC50, IFNγ release from NK cells (AlphaLISA) in the presence of HT29 cells (human NKG2D on cells [11]): 1.6 nM
- EC50, IFNγ release from NK cells (AlphaLISA) in the presence of NCI-H1975 cells (human NKG2D on cells [11]): 0.88 nM
- EC50 of growth inhibition at 72 hours (IncuCyte), human primary keratinocytes, against cetuximab [12]: 60 fold
- EC50 of inhibition of EGF-induced EGFR phosphorylation (AlphaLISA), human primary keratinocytes [12]: 5.3 nM
- EC50 of tumor cell growth inhibition over 72 hours (IncuCyte), NCI-H292-NucLight Green or FaDu cells [12]: 1.7 to 3.9 nM
- EC50 [13]: 0.77 nM
- Max FOB [13]: 41 fold over background
- EC50, NK-dependent inhibition at 72 hours, HT29 tumor cells [14]: 0.063 nM
- Kd [15]: 482 nM
- Kd [16]: 1000 nM
- Kd [17]: 53.8 nM
- koff [17]: 0.011 s⁻¹
- kon [17]: 200000 M⁻¹ s⁻¹
- Kd [18]: 5.6 nM
- koff [18]: 0.00024 s⁻¹
- kon [18]: 42000 M⁻¹ s⁻¹
- EC50 [19]: 0.33 nM
- Max FOB [19]: 5 fold over background
- EC50 [20]: 4.6 nM
- Max FOB [20]: 730 fold over background
B1: EGFR-TriNKET (bispecific antibody, human IgG1, kappa)
chain: DIQMTQSPSSLSASVGDRVTITCQASQDISNYLNWYQQKPGKAPKLLIYDASNLETGVPSRFSGSGSGTDFTFTISSLQPEDIATYYCQHFRHLPLAFGCGTKVEIKGGGGSGGGGSGGGGSGGGGSQVQLQESGPGLVKPSETLSLTCTVSGGSVSSGDYYWTWIRQSPGKCLEWIGHIYYSGNTNYNPRLKSRLTISIDTSKTQFSLKLSSVTAADTAIYYCVRDRVTGAFDIWGQGTMVTVSSGSDKTHTCPPCPAPELLGGPSVFLFPPKPKDTLMISRTPEVTCVVVDVSHEDPEVKFNWYVDGVEVHNAKTKPREEQYNSTYRVVSVLTVLHQDWLNGKEYKCKVSNKALPAPIEKTISKAKGQPREPRVYTLPPCRDELTKNQVSLTCLVKGFYPSDIAVEWESNGQPENNYKTTPPVLVSDGSFTLYSKLTVDKSRWQQGNVFSCSVMHEALHNHYTQKSLSLSPG
heavy: EVQLVESGGGLVKPGGSLRLSCAASGFTFSSYSMNWVRQAPGKGLEWVSSISSSSSYIYYADSVKGRFTISRDNAKNSLYLQMNSLRAEDTAVYYCARGAPIGAAAGWFDPWGQGTLVTVSSASTKGPSVFPLAPSSKSTSGGTAALGCLVKDYFPEPVTVSWNSGALTSGVHTFPAVLQSSGLYSLSSVVTVPSSSLGTQTYICNVNHKPSNTKVDKKVEPKSCDKTHTCPPCPAPELLGGPSVFLFPPKPKDTLMISRTPEVTCVVVDVSHEDPEVKFNWYVDGVEVHNAKTKPREEQYNSTYRVVSVLTVLHQDWLNGKEYKCKVSNKALPAPIEKTISKAKGQPREPQVCTLPPSRDELTENQVSLTCLVKGFYPSDIAVEWESNGQPENNYKTTPPVLDSDGSFFLYSWLTVDKSRWQQGNVFSCSVMHEALHNHYTQKSLSLSPG
light: DIQMTQSPSSVSASVGDRVTITCRASQGISSWLAWYQQKPGKAPKLLIYAASSLQSGVPSRFSGSGSGTDFTLTISSLQPEDFATYYCQQGVSFPRTFGGGTKVEIKRTVAAPSVFIFPPSDEQLKSGTASVVCLLNNFYPREAKVQWKVDNALQSGNSQESVTEQDSKDSTYSLSSTLTLSKADYEKHKVYACEVTHQGLSSPVTKSFNRGEC
notes: also called EGFR-TriNKET-3

Reference: patent US20230250176A1 (DRAGONFLY THERAPEUTICS, published 2023)
